Like-named read-outs stand apart in the source and are kept apart here.

Series [1] deals with Staphylococcal enterotoxin B (SEB, r-SEB) (Staphylococcus aureus, UniProt P01552 28-266). In words: AuNP colorimetric aggregation assay; 240 nM random DNA. The following applies: protein: recombinant; label: none.
Series [2] has the same target.

Regarding CGTAGTCTAGTGTCGATTAGTTTCCTTGAGACCTTGTGCT (ssDNA) [random ssDNA (RDNA)], in series [1], the binding result is recorded as “no binding”.

B1: SEB2 aptamer (ssDNA)
DNA: TAGCTCACTCATTAGGCACGGGTAGGCCATAATATCTTATTAGCGTAATTCTGCGATTGGCATAGTTAAGCCAGCC
With B1, the binding result in series [2] is “binds”.

The values above are taken from publication PMC5816949, “Highly Sensitive Colorimetric Biosensor for Staphylococcal Enterotoxin B by a Label-Free Aptamer and Gold Nanoparticles”.
